Assay results as given in patent publication US20220010021A1 (Sanofi, published 2022).

T1: human beta-Klotho (KLB) (human, UniProt Q86Z14 53-997)
T1 construct: Bought protein; also called human KLB; β-Klotho
T1 sequence (looked up): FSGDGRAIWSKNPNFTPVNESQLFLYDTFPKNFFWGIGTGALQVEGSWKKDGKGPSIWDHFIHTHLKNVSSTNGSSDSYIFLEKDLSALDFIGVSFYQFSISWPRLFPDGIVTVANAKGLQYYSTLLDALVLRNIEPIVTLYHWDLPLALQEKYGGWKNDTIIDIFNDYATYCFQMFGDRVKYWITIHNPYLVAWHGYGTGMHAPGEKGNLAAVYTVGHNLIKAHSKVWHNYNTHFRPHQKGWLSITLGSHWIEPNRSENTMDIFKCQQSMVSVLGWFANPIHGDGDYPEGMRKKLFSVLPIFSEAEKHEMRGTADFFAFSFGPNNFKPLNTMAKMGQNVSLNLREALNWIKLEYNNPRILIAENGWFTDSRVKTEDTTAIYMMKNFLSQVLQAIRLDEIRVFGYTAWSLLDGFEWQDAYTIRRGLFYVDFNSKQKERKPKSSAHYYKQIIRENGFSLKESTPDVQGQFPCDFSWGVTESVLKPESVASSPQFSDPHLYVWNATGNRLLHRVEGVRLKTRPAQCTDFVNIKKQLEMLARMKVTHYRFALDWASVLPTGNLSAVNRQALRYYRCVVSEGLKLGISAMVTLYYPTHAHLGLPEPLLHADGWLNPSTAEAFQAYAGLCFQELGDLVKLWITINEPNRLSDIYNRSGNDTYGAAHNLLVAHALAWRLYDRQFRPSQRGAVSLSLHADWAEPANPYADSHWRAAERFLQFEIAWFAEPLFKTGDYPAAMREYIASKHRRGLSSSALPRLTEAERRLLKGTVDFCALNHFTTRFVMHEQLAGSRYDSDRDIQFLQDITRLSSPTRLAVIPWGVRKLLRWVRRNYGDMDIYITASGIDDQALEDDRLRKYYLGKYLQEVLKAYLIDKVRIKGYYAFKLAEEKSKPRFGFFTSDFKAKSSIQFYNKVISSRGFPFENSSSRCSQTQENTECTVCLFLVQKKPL


What was measured:
[1] = target: cell surface receptor composed of FGFR1c and co-receptor beta-Klotho (KLB) (human, UniProt P11362 22-822; Q86Z14 1-1044); assay: cell-based or functional assay; for Mean E max, Luciferase reporter gene assay: reference of the scale not given here
Sequence of cell surface receptor composed of FGFR1c and co-receptor beta-Klotho (KLB) (P11362 22-822, chain 1 of 2): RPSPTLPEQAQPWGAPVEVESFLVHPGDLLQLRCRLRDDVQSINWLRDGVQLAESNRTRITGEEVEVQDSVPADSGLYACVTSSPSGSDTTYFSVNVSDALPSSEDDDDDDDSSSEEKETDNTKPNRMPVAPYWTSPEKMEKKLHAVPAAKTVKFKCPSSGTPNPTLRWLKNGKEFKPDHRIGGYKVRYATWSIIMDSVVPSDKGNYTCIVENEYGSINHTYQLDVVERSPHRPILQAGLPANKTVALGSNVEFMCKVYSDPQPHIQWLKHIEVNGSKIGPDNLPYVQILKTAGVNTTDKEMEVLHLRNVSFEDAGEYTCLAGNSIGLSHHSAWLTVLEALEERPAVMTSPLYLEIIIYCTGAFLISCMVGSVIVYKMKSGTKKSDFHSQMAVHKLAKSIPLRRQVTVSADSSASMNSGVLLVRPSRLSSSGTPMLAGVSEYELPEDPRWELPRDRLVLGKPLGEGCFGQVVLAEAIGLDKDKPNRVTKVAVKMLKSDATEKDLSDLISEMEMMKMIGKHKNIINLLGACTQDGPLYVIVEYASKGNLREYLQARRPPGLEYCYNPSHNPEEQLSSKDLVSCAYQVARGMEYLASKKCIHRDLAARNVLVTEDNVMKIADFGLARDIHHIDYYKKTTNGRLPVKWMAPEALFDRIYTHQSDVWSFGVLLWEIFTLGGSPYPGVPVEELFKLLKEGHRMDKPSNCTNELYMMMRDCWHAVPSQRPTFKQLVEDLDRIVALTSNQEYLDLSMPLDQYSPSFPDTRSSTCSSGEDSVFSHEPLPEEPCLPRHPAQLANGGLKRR
Sequence of cell surface receptor composed of FGFR1c and co-receptor beta-Klotho (KLB) (Q86Z14 whole entry, chain 2 of 2): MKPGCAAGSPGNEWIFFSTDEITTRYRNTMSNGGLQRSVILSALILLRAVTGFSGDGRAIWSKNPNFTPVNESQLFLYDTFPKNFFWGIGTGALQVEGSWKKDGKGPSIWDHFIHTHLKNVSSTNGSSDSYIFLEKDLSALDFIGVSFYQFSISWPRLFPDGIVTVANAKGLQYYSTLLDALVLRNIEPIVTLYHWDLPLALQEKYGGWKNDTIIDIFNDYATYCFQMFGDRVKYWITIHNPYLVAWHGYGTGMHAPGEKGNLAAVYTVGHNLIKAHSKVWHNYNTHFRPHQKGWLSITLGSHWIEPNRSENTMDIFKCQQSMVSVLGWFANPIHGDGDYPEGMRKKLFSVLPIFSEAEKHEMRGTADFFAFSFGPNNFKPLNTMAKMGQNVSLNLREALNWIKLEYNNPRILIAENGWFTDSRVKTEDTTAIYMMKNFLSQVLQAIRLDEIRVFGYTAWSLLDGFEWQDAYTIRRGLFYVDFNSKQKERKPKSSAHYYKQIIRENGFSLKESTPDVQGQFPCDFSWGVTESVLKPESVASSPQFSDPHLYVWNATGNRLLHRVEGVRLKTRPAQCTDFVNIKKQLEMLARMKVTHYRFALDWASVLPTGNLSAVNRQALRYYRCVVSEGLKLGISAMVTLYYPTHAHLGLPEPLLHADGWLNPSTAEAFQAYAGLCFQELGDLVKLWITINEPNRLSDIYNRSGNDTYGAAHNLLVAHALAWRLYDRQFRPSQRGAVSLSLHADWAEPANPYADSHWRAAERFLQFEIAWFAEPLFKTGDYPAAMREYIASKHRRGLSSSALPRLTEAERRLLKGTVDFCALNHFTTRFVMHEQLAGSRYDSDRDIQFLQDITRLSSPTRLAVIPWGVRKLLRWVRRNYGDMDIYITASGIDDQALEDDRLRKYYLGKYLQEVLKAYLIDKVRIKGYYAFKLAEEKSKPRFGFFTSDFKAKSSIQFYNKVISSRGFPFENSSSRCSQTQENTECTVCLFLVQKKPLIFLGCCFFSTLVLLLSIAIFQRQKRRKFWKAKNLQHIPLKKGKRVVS

[2] = target: T1, human beta-Klotho (KLB); assay: BLI off-rate screening (Octet), crude supernatant;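 note: supernatants tested at 25 µg/mL, dissociation from biosensors recorded in D-PBS with 0.1% BSA over 1800 s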

Row | Mean E max, Luciferase reporter gene assay [1] | Mean EC50, Luciferase reporter gene assay [1] | koff [2] | Binder
1 | 110% | 0.158 nM | 4.5e-05 s⁻¹ | 16H7 light chain variant S31H (antibody, IgG4, V domains shown, IgG4 backbone) VH: not shown VL: SYVLTQPPSVSVAPGQTARITCGGNNIGSEHVHWYQQKPGQAPVLVVYDDSDRPSGIPERFSGSNSGNTATLTISRVEAGDEADYYCQVWDGNSDHVVFGGGTKLTVLG
2 | 99% | 0.124 nM | 7.6e-05 s⁻¹ | 16H7 light chain variant S31N (antibody, IgG4, V domains shown, IgG4 backbone) VH: not shown VL: SYVLTQPPSVSVAPGQTARITCGGNNIGSENVHWYQQKPGQAPVLVVYDDSDRPSGIPERFSGSNSGNTATLTISRVEAGDEADYYCQVWDGNSDHVVFGGGTKLTVLG
3 | 102% | 0.121 nM | 2.5e-05 s⁻¹ | 16H7 light chain variant S51T (antibody, IgG4, V domains shown, IgG4 backbone) VH: not shown VL: SYVLTQPPSVSVAPGQTARITCGGNNIGSESVHWYQQKPGQAPVLVVYDDTDRPSGIPERFSGSNSGNTATLTISRVEAGDEADYYCQVWDGNSDHVVFGGGTKLTVLG
4 | 101% | 0.117 nM | 1.2e-05 s⁻¹ | 16H7 light chain variant S94M (antibody, IgG4, V domains shown, IgG4 backbone) VH: not shown VL: SYVLTQPPSVSVAPGQTARITCGGNNIGSESVHWYQQKPGQAPVLVVYDDSDRPSGIPERFSGSNSGNTATLTISRVEAGDEADYYCQVWDGNMDHVVFGGGTKLTVLG
5 | 107% | 0.115 nM | 6.5e-05 s⁻¹ | 16H7 light chain variant S51Q (antibody, IgG4, V domains shown, IgG4 backbone) VH: not shown VL: SYVLTQPPSVSVAPGQTARITCGGNNIGSESVHWYQQKPGQAPVLVVYDDQDRPSGIPERFSGSNSGNTATLTISRVEAGDEADYYCQVWDGNSDHVVFGGGTKLTVLG
6 | 104% | 0.123 nM | 5.7e-05 s⁻¹ | 16H7 light chain variant S94R (antibody, IgG4, V domains shown, IgG4 backbone) VH: not shown VL: SYVLTQPPSVSVAPGQTARITCGGNNIGSESVHWYQQKPGQAPVLVVYDDSDRPSGIPERFSGSNSGNTATLTISRVEAGDEADYYCQVWDGNRDHVVFGGGTKLTVLG
7 | 100% | 0.113 nM | 5.3e-05 s⁻¹ | 16H7 light chain variant S51N (antibody, IgG4, V domains shown, IgG4 backbone) VH: not shown VL: SYVLTQPPSVSVAPGQTARITCGGNNIGSESVHWYQQKPGQAPVLVVYDDNDRPSGIPERFSGSNSGNTATLTISRVEAGDEADYYCQVWDGNSDHVVFGGGTKLTVLG
8 | 103% | 0.133 nM | 3.3e-05 s⁻¹ | 16H7 light chain variant S94N (antibody, IgG4, V domains shown, IgG4 backbone) VH: not shown VL: SYVLTQPPSVSVAPGQTARITCGGNNIGSESVHWYQQKPGQAPVLVVYDDSDRPSGIPERFSGSNSGNTATLTISRVEAGDEADYYCQVWDGNNDHVVFGGGTKLTVLG
9 | 100% | 0.146 nM | 6.8e-05 s⁻¹ | 16H7 light chain variant S94G (antibody, IgG4, V domains shown, IgG4 backbone) VH: not shown VL: SYVLTQPPSVSVAPGQTARITCGGNNIGSESVHWYQQKPGQAPVLVVYDDSDRPSGIPERFSGSNSGNTATLTISRVEAGDEADYYCQVWDGNGDHVVFGGGTKLTVLG
10 | 102% | 0.097 nM | 5e-05 s⁻¹ | 16H7 light chain variant S51I (antibody, IgG4, V domains shown, IgG4 backbone) VH: not shown VL: SYVLTQPPSVSVAPGQTARITCGGNNIGSESVHWYQQKPGQAPVLVVYDDIDRPSGIPERFSGSNSGNTATLTISRVEAGDEADYYCQVWDGNSDHVVFGGGTKLTVLG
11 | 106% | 0.126 nM | 4.3e-05 s⁻¹ | 16H7 light chain variant S94I (antibody, IgG4, V domains shown, IgG4 backbone) VH: not shown VL: SYVLTQPPSVSVAPGQTARITCGGNNIGSESVHWYQQKPGQAPVLVVYDDSDRPSGIPERFSGSNSGNTATLTISRVEAGDEADYYCQVWDGNIDHVVFGGGTKLTVLG
12 | 99% | 0.107 nM | 4.6e-05 s⁻¹ | 16H7 light chain variant S94A (antibody, IgG4, V domains shown, IgG4 backbone) VH: not shown VL: SYVLTQPPSVSVAPGQTARITCGGNNIGSESVHWYQQKPGQAPVLVVYDDSDRPSGIPERFSGSNSGNTATLTISRVEAGDEADYYCQVWDGNADHVVFGGGTKLTVLG
13 | 109% | 0.116 nM | 3.2e-05 s⁻¹ | 16H7 light chain variant S94T (antibody, IgG4, V domains shown, IgG4 backbone) VH: not shown VL: SYVLTQPPSVSVAPGQTARITCGGNNIGSESVHWYQQKPGQAPVLVVYDDSDRPSGIPERFSGSNSGNTATLTISRVEAGDEADYYCQVWDGNTDHVVFGGGTKLTVLG
14 | 100% | 0.122 nM | 1.4e-05 s⁻¹ | 16H7 light chain variant S94E (antibody, IgG4, V domains shown, IgG4 backbone) VH: not shown VL: SYVLTQPPSVSVAPGQTARITCGGNNIGSESVHWYQQKPGQAPVLVVYDDSDRPSGIPERFSGSNSGNTATLTISRVEAGDEADYYCQVWDGNEDHVVFGGGTKLTVLG
15 | 98% | 0.103 nM | 0.00012 s⁻¹ | 16H7 light chain variant S51R (antibody, IgG4, V domains shown, IgG4 backbone) VH: not shown VL: SYVLTQPPSVSVAPGQTARITCGGNNIGSESVHWYQQKPGQAPVLVVYDDRDRPSGIPERFSGSNSGNTATLTISRVEAGDEADYYCQVWDGNSDHVVFGGGTKLTVLG
16 | 99% | 0.138 nM | 1e-07 s⁻¹ | 16H7 light chain variant S94C (antibody, IgG4, V domains shown, IgG4 backbone) VH: not shown VL: SYVLTQPPSVSVAPGQTARITCGGNNIGSESVHWYQQKPGQAPVLVVYDDSDRPSGIPERFSGSNSGNTATLTISRVEAGDEADYYCQVWDGNCDHVVFGGGTKLTVLG
17 | 100% | 0.132 nM | 1e-07 s⁻¹ | 16H7 light chain variant S94F (antibody, IgG4, V domains shown, IgG4 backbone) VH: not shown VL: SYVLTQPPSVSVAPGQTARITCGGNNIGSESVHWYQQKPGQAPVLVVYDDSDRPSGIPERFSGSNSGNTATLTISRVEAGDEADYYCQVWDGNFDHVVFGGGTKLTVLG
18 | 103% | 0.122 nM | 3.4e-05 s⁻¹ | 16H7 light chain variant S94D (antibody, IgG4, V domains shown, IgG4 backbone) VH: not shown VL: SYVLTQPPSVSVAPGQTARITCGGNNIGSESVHWYQQKPGQAPVLVVYDDSDRPSGIPERFSGSNSGNTATLTISRVEAGDEADYYCQVWDGNDDHVVFGGGTKLTVLG
19 | 103% | 0.169 nM | 4.4e-05 s⁻¹ | 16H7 light chain variant S94L (antibody, IgG4, V domains shown, IgG4 backbone) VH: not shown VL: SYVLTQPPSVSVAPGQTARITCGGNNIGSESVHWYQQKPGQAPVLVVYDDSDRPSGIPERFSGSNSGNTATLTISRVEAGDEADYYCQVWDGNLDHVVFGGGTKLTVLG
20 | 97% | 0.099 nM | 9.6e-05 s⁻¹ | 16H7 light chain variant S51L (antibody, IgG4, V domains shown, IgG4 backbone) VH: not shown VL: SYVLTQPPSVSVAPGQTARITCGGNNIGSESVHWYQQKPGQAPVLVVYDDLDRPSGIPERFSGSNSGNTATLTISRVEAGDEADYYCQVWDGNSDHVVFGGGTKLTVLG
